Measurements taken from publication doi:10.1101/2024.11.01.621267.

Target: recombinant full-length RACK1 protein (ITC) (human) (UniProt P63244)
Assay: ITC; LARP4 peptide (400 μM; 300 μM for 600–625) injected into RACK1 (40 μM; 30 μM) in the cell; iTC200; 298K; 20 mM HEPES, 300 mM NaCl, 10% glycerol, 1 mM DTT pH 7.5; triplicate

- Kd: 2100 nM
- dH: -8.6 kcal/mol
- stoichiometry N: 0.9
Substance: HsLARP4 peptide 612–637 (from UniProt Q71RC2-1 612-637)
